Results reported in PMC3961559.
Read-outs that look alike come from different tables or passages of the source.

B1: non-specific oligonucleotide (ssDNA)
DNA: GGCGTAACTGATCGATCGT
B2: thrombin binding aptamer (TBA) oligo (structured_DNA)
DNA: GGTTGGTGTGGTTGG

Legend:
human alpha-thrombin [1] = target: T1, human alpha-thrombin (Homo sapiens, UniProt P00734;P00734 328-363;364-622); assay: competition
human alpha-thrombin [2] = target: T1, human alpha-thrombin; assay: competition; remark: listed apart in the source

Binder	binding result (human alpha-thrombin [1])	binding result (human alpha-thrombin [2])
B1	no binding	–
B2	–	binds
